Laboratory results as given in patent US12379386B2, “Antibodies to 25-hydroxyvitamin D2 and D3 for detecting total 25-hydroxyvitamin D” (Siemens Healthcare Diagnostics Inc., priority 2011, dated 2025).

Experiments:
Format in all cases: binding
[1] = Antibody displacement assay, 10H9 supernatant, competitor 25-hydroxyvitamin D2; details: for optical density at 450 nm: 25 OH-D2 0.4 μg/mL, coat Vit D C22-Diaminobutane-Suberoyl-KLH 50 ng/mL
Protocol: (§1) Following isolation of hybridoma clones, studies were conducted to determine the relative ability of the antibodies to bind to both 25-hydroxyvitamin D2 and 25-hydroxyvitamin D3. To assess this, antibody displacement assays were conducted to determine the degree to which binding between vitamin D-C22 BSA and a reactive antibody raised against the antigen (10H9) could be disrupted by the presence of 25-hydroxyvitamin D2 or 25-hydroxyvitamin D3. Cell culture supernatant from the 10H9 hybridoma cell lines producing antibodies reactive to vitamin D-C22 BSA were coincubated in the presence or absence of 25-hydroxyvitamin D2 or 25-hydroxyvitamin D3 on microtiter plates coated with vitamin D-C22 KLH for 1 hour. After washing the plates, goat anti-mouse IgG-HRPO was added and incubated for 30 minutes. Plates were washed and then incubated with tetramethyl benzidine (TMB). The generated color was stopped using 1N sulfuric acid and the optical density was measured at 450 nm.

[2] = system: Vit D C22-Diaminobutane-Suberoyl-KLH; test: 10H9 hybridoma supernatant ELISA on coated plate, no competing antigen; details: Ag 0, coat 50 ng/mL
Protocol: as §1

[3] = Displacement assay with purified coated 10H9 and alkaline phosphatase tracer, competitor 25-hydroxyvitamin D3; details: for optical density at 405 nm: MAb coat 1 ug/mL
Protocol: (§2) Next, displacement experiments were conducted using purified antibody, rather than cell supernatant. In this experiment, the antibody of interest was coated directly on the microtiter plate via a two-hour incubation. Coated plates were washed and then coincubated with either 25-hydroxyvitamin D2 or 25-hydroxyvitamin D3 in the presence of alkaline phosphatase-conjugated vitamin D-C22 BSA. After 30 minutes the plates were washed and color was developed by adding the substrate p-nitrophenyl phosphate (PNPP). Optical density colored solution was measured at 405 nm.

[4] = Displacement assay with purified coated 10H9 and alkaline phosphatase tracer, competitor 25-hydroxyvitamin D2; details: for optical density at 405 nm: MAb coat 1 ug/mL
Protocol: as §2

[5] = Antibody displacement assay, 10H9 supernatant, competitor 25-hydroxyvitamin D3; details: for optical density at 450 nm: 25 OH-D3 0.4 μg/mL, coat Vit D C22-Diaminobutane-Suberoyl-KLH 50 ng/mL
Protocol: as §1

B1: 10H9: murine monoclonal antibody from the 10H9 hybridoma, raised against vitamin D-C22 BSA; binds 25-hydroxyvitamin D2 and D3 (antibody, V domains shown)
VH: VQLLESGPELVKPGASMKISCKASGYSFTDYTMNWVKQSHGKNLEWIGLINPYNGFTIYNQKFKGKATLTVDKSSSTAYMELLSLTSEDSAVYYFIRAHYDGRVFWGQGTTLTVSS
VL: CELVMTQSPLSLPVSLGDQASVSCRSSQSLVHSNGNTYLHRYLQKPGQSPKLLIYQVSNRFSGVPDRFSGSGSGTDFTLKITRVEAEDLGVYFCSQITHFPPTFGGGTKLEIKR
modifications: Description of Unknown: 10H9 monoclonal antibody heavy chain variable region polypeptide; Description of Unknown: 10H9 monoclonal antibody light chain variable region polypeptide
- disruption of antibody binding by coincubation ([1]; 10H9 supernatant, 25-hydroxyvitamin D2): disrupted in a concentration-dependent manner
- optical density at 450 nm ([1]; supernatant dilution 1:4): 0.323
- optical density at 450 nm ([1]; supernatant dilution 1:16): 0.154
- optical density at 450 nm ([1]; supernatant dilution 1:64): 0.097
- optical density at 450 nm ([1]; supernatant dilution 1:256): 0.086
- optical density at 450 nm ([2]; supernatant dilution 1:4): 1.997
- optical density at 450 nm ([2]; supernatant dilution 1:16): 1.244
- optical density at 450 nm ([2]; supernatant dilution 1:64): 0.672
- optical density at 450 nm ([2]; supernatant dilution 1:256): 0.313
- optical density at 405 nm ([3]; 25OH-VIT D3 0 ng/ml): 1.213
- optical density at 405 nm ([3]; 25OH-VIT D3 5 ng/ml): 1.083
- optical density at 405 nm ([3]; 25OH-VIT D3 10 ng/ml): 0.800
- optical density at 405 nm ([3]; 25OH-VIT D3 25 ng/ml): 0.519
- optical density at 405 nm ([3]; 25OH-VIT D3 100 ng/ml): 0.115
- optical density at 405 nm ([3]; 25OH-VIT D3 200 ng/ml): 0.089
- optical density at 405 nm ([3]; 25OH-VIT D3 400 ng/ml): 0.077
- optical density at 405 nm ([3]; 25OH-VIT D3 1000 ng/ml): 0.069
- disruption of 10H9 binding to vitamin D-C22 BSA by coincubation ([3]; purified antibody, 25-hydroxyvitamin D3): disrupted in a concentration-dependent manner
- optical density at 405 nm ([4]; 25OH-VIT D2 0 ng/ml): 1.277
- optical density at 405 nm ([4]; 25OH-VIT D2 5 ng/ml): 1.189
- optical density at 405 nm ([4]; 25OH-VIT D2 10 ng/ml): 1.007
- optical density at 405 nm ([4]; 25OH-VIT D2 25 ng/ml): 0.771
- optical density at 405 nm ([4]; 25OH-VIT D2 100 ng/ml): 0.106
- optical density at 405 nm ([4]; 25OH-VIT D2 200 ng/ml): 0.080
- optical density at 405 nm ([4]; 25OH-VIT D2 400 ng/ml): 0.069
- optical density at 405 nm ([4]; 25OH-VIT D2 1000 ng/ml): 0.063
- disruption of 10H9 binding to vitamin D-C22 BSA by coincubation ([4]; purified antibody, 25-hydroxyvitamin D2): disrupted in a concentration-dependent manner
- disruption of antibody binding by coincubation ([5]; 10H9 supernatant, 25-hydroxyvitamin D3): disrupted in a concentration-dependent manner
- optical density at 450 nm ([5]; supernatant dilution 1:4): 0.384
- optical density at 450 nm ([5]; supernatant dilution 1:16): 0.176
- optical density at 450 nm ([5]; supernatant dilution 1:64): 0.105
- optical density at 450 nm ([5]; supernatant dilution 1:256): 0.090
